Source: US20230340098A1

Columns and labels:
[1] = biological target: human GARP/TGFβ1 complex (protein used in ELISA and Octet) (human) (UniProt Q14392); assay: Octet
[2] = biological target: human GARP/latent TGFβ1 complex on cells (human) (UniProt Q14392); assay: flow cytometry on human GARP/latent TGFβ1 transfected CHO-S cells, goat anti-human IgG(H+L) FITC
[3] = biological target: human GARP protein not in any GARP/TGFβ1 complex (protein used in ELISA and Octet) (human) (UniProt Q14392); assay: Octet
Sequence of human GARP protein not in any GARP/TGFβ1 complex (protein used in ELISA and Octet) (human) (Q14392 20-627 limits assumed, one chain of several): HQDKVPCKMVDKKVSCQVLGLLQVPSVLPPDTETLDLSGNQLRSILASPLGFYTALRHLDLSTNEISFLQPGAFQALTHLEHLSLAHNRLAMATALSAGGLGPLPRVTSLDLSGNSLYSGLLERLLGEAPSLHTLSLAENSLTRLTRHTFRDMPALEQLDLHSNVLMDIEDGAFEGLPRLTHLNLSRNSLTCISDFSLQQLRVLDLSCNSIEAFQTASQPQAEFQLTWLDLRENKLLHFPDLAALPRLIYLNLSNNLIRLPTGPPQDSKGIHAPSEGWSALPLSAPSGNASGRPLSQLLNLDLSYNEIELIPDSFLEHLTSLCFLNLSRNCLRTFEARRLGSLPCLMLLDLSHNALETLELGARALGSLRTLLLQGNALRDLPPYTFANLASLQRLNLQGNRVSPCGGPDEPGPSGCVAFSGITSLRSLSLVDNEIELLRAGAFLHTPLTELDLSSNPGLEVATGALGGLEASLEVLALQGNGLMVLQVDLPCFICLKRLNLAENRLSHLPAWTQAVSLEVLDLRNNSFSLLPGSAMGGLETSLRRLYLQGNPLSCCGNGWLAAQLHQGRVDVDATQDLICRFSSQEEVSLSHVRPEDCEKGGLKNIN

Row | Kd [1] [nM] | EC50 (read off the curve) [2] [µg/mL] | Kd [3] [nM] | Substance
1 | 0.428 | 0.3 |  | GARP ref. Ab1, an ABBV-151 analog (antibody)
2 | 4.12 |  | 2.02 | GARP ref. Ab2, a DS-1005a analog (antibody)
